Experimental data published in a protein production outcome set (Wang et al. 2014).

Assay: label from the status in PepcDB records
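Note: failed if final PepcDB status was selected cloned or expressed and not failed if soluble or beyond.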

| Sequence | protein production |
| --- | --- |
| MKVKILVDSTADVPFSWMEKYDIDSIPLYVVWEDGRSEPDEREPEEIMNFYKRIREAGSVPKTSQPSVEDFKKRYLKYKEEDYDVVLVLTLSSKLSGTYNSAVLASKEVDIPVYVVDTLLASGAIPLPARVAREMLENGATIEEVLKKLDERMKNKDFKAIFYVSNFDYLVKGGRVSKFQGFVGNLLKIRVCLHIENGELIPYRKVRGDKKAIEALIEKLREDTPEGSKLRVIGVHADNEAGVVELLNTLRKSYEVVDEIISPMGKVITTHVGPGTVGFGIEVLERKR | not failed |
| MSEALELLGQDIVARAPGVLGHSVAFGELTIVARAASVIDTLTFLRDDAACRFHQLIDLTGVDYPERAARFDVVYHLLSLVKNHRIRLKVSTDEDTPVPSVTPVFPVADWFEREAFDMYGIFFDGHPDLRRILTDYGFHGHPLRKDFPMTGYVEVRYDDELKRVVYEPVKITEFRAFDFLSPWEGAKYALPGDEKAQ | failed |
| MTQPSGLKNLLRAAAGALPVVPRTDQLPNRTVTVEELPIDPANVAAYAAVTGLRYGNQVPLTYPFALTFPSVMSLVTGFDFPFAAMGAIHTENHITQYRPIAVTDAVGVRVRAENLREHRRGLLVDLVTNVSVGNDVAWHQVTTFLHQQRTSLSGEPKPPPQKKPKLPPPAAVLRITPAKIRRYAAVGGDHNPIHTNPIAAKLFGFPTVIAHGMFTAAAVLANIEARFPDAVRYSVRFAKPVLLPATAGLYVAEGDGGWDLTLRNMAKGYPHLTATVRGL | failed |
| MARYRGAVERLERRFGVSLALKGERRLSGKSALDKRAYGPGQHGQRRAKTSDYGLQLKEKQKAKMMYGISEKQFRSIFVEANRLDGNTGENLIRLIERRLDNVVYRMGFATTRSSARQLVTHGHVLVDGKRLDIPSYFVRSGQKIEIKEKTKSNSQVVRAMELTAQTGIVPWIDVEKDKKYGIFTRYPEREEVVVPIEERLIVELYSK | failed |
| NGDPQWLVQAARTAVLRTYEYGRALLKGLFTDSPFNIDIFDTQLRFVGLNIAERRAGVFQGTEYSGHTMREMAPPGLLDVDALEARQRRVLETGKALIDTEVVGHPVANSPREYVWSESILPLRDPSGRVIALGHVVSDV | failed |
| MQEIQRFNKVLKSCVLFGDIILLNSLLWGFELVLGSRFYSGNLTSLYQGMVLLSLCYLVCNIQSGVILHHPVVRPEQIMIRVLRNMVPFILFSICFLSLFHFEFFRSRLFGLFYVALLIILICYRLAFRYFLELYREKGGNVRMVVLVGSHENMQELYHSMTDDPTSGYRVMGYFEDSPSDYYPEEVAYLGQPKEAIEYLERNSGKIAQLYCSLPSVRSAEIVPIINYCENHLVRFFSVPNVRNYLKRRMYFDLLGNVPVLSIRREPLELRENRVLKRFFDIIFSLIFLCTIFPFVYIIIGIAIKISSPGPIFFKQKRSGEDGREFWCYKFRSMRVNAQCDVLQATANDPRKTRIGEFIRKTSIDELPQFINVLMGDMSVVGPRPHMLKHTEEYAQVINKFMVRHFVKPGITGWAQVTGYRGETKELWQMEGRVSRDIWYIEHWTFMLDLYIIYKTVYNAIHGEKEAY | failed |
| MSDQPMNEVQDNAAPANPWLELRRLTPARIALGRTGTSLPTCAQLDFQAAHAQARDAVHLAFDHAAISAQLAEKGRETILLHSAAADRDSYLQRPDLGRRLNDESAQTLRDYAAAHPGGLDLAVVVADGLSALAVHRHAVPFLTRLEEQASAEGWTLSPVLMVEQGRVAVADEIGELLGAKMVVILIGERPGLSSPDSLGLYFTYAPKVGLNDAHRNCISNVRLEGLSYAMAAHRLLYLMREACKRQISGVSLKDEAQLNTLESDDSAENSDRKIGNFLLDGPAVPH | not failed |
| MKIILFLTLIVFTSCELYHYQECVRGTTVLLKEPCPSGTYEGNSPFHPLADNKFALTCTSTHFAFACADGTRHTYQLRARSVSPKLFIRQEEVQQELYSPLFLIVAALVFLILCFTIKRKTE | not failed |
| MSCVHYKFSSKLNYDTVTFDGLHISLCDLKKQIMGREKLKAADCDLQITNAQTKEEYTDDNALIPKNSSVIVRRIPIGGVKSTSKTYVISRTEPAMATTKAIDDSSASISLAQLTKTANLAEANASEEDKIKAMMSQSGHEYDPINYMKKPLGPPPPSYTCFRCGKPGHYIKNCPTNGDKNFESGPRIKKSTGIPRSFMMEVKDPNMKGAMLTNTGKYAIPTIDAGRLLFHKLGTMGHKQIDTYFWNRGDVYGATATQITHLREAYAIGKKEKPPFLPEEPSSSSEEDDPIPDELLCLICKDIMTDAVVIPCCGNSYCDECIRTALLESDEHTCPTCHQNDVSPDALIANKFLRQAVNNFKNETGYTKRLRKQLPPPPPPIPPPRPLIQRNLQPLMRSPISRQQDPLMIPVTSSSTHPAPSISSLTSNQSSLAPPVSGNPSSAPAPVPDITATVSISVHSEKSDGPFRDSDNKILPAAALASEHSKGTSSIAITALMEEKGYQVPVLGTPSLLGQSLLHGQLIPTTGPVRINTARPGGGRPGWEHSNKLGYLVSPPQQIRRGERSCYRSINRGRHHSERSQRTQGPSLPATPVFVPVPPPPLYPPPPHTLPLPPGVPPPQFSPQFPPGQPPPAGYSVPPPGFPPAPANLSTPWVSSGVQTAHSNTIPTTQAPPLSREEFYREQRRLKEEEKKKSKLDEFTNDFAKELMEYKKIQKERRRSFSRSKSPYSGSSYSRSSYTYSKSRSGSTRSRSYSRSFSRSHSRSYSRSPPYPRRGRGKSRNYRSRSRSHGYHRSRSRSPPYRRYHSRSRSPQAFRGQSPNKRNVPQGETEREYFNRYREVPPPYDMKAYYGRSVDFRDPFEKERYREWERKYREWYEKYYKGYAAGAQPRPSANRENFSPERFLPLNIRNSPFTRGRREDYVGGQSHRSRNIGSNYPEKLSARDGHNQKDNTKSKEKESENAPGDGKGNKHKKHRKRRKGEESEGFLNPELLETSRKSREPTGVEENKTDSLFVLPSRDDATPVRDEPMDAESITFKSVSEKDKRERDKPKAKGDKTKRKNDGSAVSKKENIVKPAKGPQEKVDGERERSPRSEPPIKKAKEETPKTDNTKSSSSSQKDEKITGTPRKAHSKSAKEHQETKPVKEEKVKKDYSKDVKSEKLTTKEEKAKKPNEKNKPLDNKGEKKKKK | not failed |
| MKGRLLQRLRQLSISNSLRGAFLTGALLTLIVSMVSLYSWHEQSSQVRYSLDEYFPRIHSAFLIEGNLNLAVDQLNEFLLAPNTTVRLQLRTQIIQHLDKIERLSQGLQLAERRQLAVILQDSRTLLAELDNALYNMFLVREKVSELSARIDWLHDDFTTELNSLVQDFTWQQGTLLDQIEANQGDAAQYLQRSREVQNEQQQVYTLARIENQIVDDLRDRLNELKSGNNDGMLVETHIRYLENLKKTADENIRALDDWPSTITLRQTIDELLEIGMVKNKMPDTMRDYVAAQKALLDASRAREATLGRFRTLLEAQLGSSHQQMQTFNQRLEQIVRVSGGLILVTTLLALLLAWGLNHYFIRSRLVKRFTALNQAVVQIGLGRTDSTIPVYGRDELGRIARLLRHTLGQLNMQRRQLEQEVAERKEIEADLRAMQDELIQTAKLAVVGQTMTTLAHEINQPLNALSMYLFTAGRAIEQGQSGQARNTLTKAEGLINRIDAIIRSLRQFTRRAELETPLYPVDLRQTFVAAWELLAMRHQSRQGALSLPTDTVWVSGDEVRIQQVLVNVLANALDACSHDAAIAVTWQTQGEALEVYIADNGPGWPGALLPSLLKPFTTSKAVGLGIGLSISVSLMAQMKGDLRLASTLTRNACVVLQFSVTDVDDVE | failed |
| MSQPSALPAADSLAALHPGFKSSALVWLGVMVALWGFSWPVMKICVGLAPPLWLAAIRFTSSGLCLFAFLACRGELRLPPRADWPIVASVGGLQMMAFTGLGLVAMQYTDAGRAALLAYTTPLWAVVTAWIAFGQRPTAAQGVALCVGLSGVAVICSPADMDWGDSTVLLGNALLLLSAMCWSFVILHVRRHRFTARPIDLAPWQMLLAALPLIVIAASVDGSPLTIAWTPELIGFLIYFGPIATSACFVISSEYGRRVSAFAMSNITLGVPVIGMLSSIFLLGERVTVPLIIGLTLIVSGVALAALAVNRKAAAGRADTALRSQAGKANWPTA | failed |
| MKNLFLTSSFKDVVPLFTEFESNLQGKTVTFIPTASTVEEVTFYVEAGKKALESLGLLVEELDIATESLGEITTKLRKNDFIYVTGGNTFFLLQELKRTGADKLILEEIAAGKLYIGESAGAVITSPNIAYIQTMDSTKKAVNLTNYDALNLVDFSTLPHYNNTPFKEITQKIVTEYAGKSQIYPISNHEAIFIRGKEVITKRLS | failed |
| MANDGATVFWLSFLAIILGFLSWKFKKIGGISLIAISIYGLFVNGLFFIFAFVFLMIAGILSFKIKPTSPKDVKIAN | failed |
| MSLEKWRIYEELTNAVREFESINPVRLIPEVGTNFVYSLPLPYARSTKDVAGVKGRIVKYGNSVKAVGPVEFGASDHLARAVLTYMRFYPEYRSAINIRYSREIIEEIIEIAQERGFKVSFYDRREEPEEIKAKEGATIPWGIETAIKRIKERPDIIYHLGDVGKEPMILVFGRNPREVLEKIKMLIEGHHHHHH | not failed |
| MTRYALLVRGINVGGKNKVVMAELRQELTNLGLEKVESYINSGNIFFTSIDSKAQLVEKLETFFAVHYPFIQSFSLLSLEDFEAELENLPAWWSRDLARKDFLFYTEGLDVDQVIATVESLELKDEVLYFGKLGIF | failed |
| MRAYQIMSRQVVSIRPEAPITDAIKVMLAHHISGLPVVDSADNLVGIICESDFLRRSEIGTEHERNRLLSLLLGAERVASEFVKERGRKVEQVMTRQPVTTNEQAPLDEVADVMERRHLNHIPVMRADRIVGIITRSDFLSAVAGPLTGASGYSGSDNQLRRAVLAALAKTPWQPIGLNVRVRDGAVSLRGVIRGESAHRAAIVACENVPGVLRVDDRLCVQPSRPDPEDDYGGGDFVSLQMEPSTLDDEPL | failed |
| MLAVLIGQHGEYLLIFLVSPGQFQEGVMTVHDHWQMDASAPELYERYLVPAITSVWADDLLDRIDPAKGECVLDVACGTGVVARRLAERGHVGRLVGIDLNGAMLAVARAKSSDVEWTEGSALDLPFATRSFDVVLCQLGLQFFPDRPQALREMARVLKPSGRLGLSVYSAIEHTPAANAFVQALDGFLGPESSRTKRAEHLTCNADEVGNWVRQAGFDRVGVETVTKQIGFPSALDYVRFQLTATPMAALLTREDDAGRERTIAAIADDVAARLDPSILANGRLTFPQESFVVVASLR | failed |
| MNYKLTLHPGSNPVEEFTSIPHGVTSLDLSLNNLYSISTVELIQAFANTPASVTSLNLSGNSLGFKNSDELVQILAAIPANVTSLNLSGNFLSYKSSDELVKTLAAIPFTITVLDLGWNDFSSKSSSEFKQAFSNLPASITSLNLRGNDLGIKSSDELIQILAAIPANVNSLNLRGNNLASKNCAELAKFLASIPASVTSLDLSANLLGLKSYAELAYIFSSIPNHVVSLNLCLNCLHGPSLENLKLLKDSLKHLQTVYLDYDIVKNMSKEQCKALGAAFPNIQKIILVDKNGKEIHPSHSIPISNLIRELSGKADVPSLLNQCLIFAQKHQTNIEDLNIPDELRESIQTCKPLLEHHHHHH | not failed |
| MTLVEFPAITFAAVVCWAVGSLLQIPAKNSKVSGPLSWLFLFSGTLVLVWFLASYWIALDRPPLRTLGETRLWYATLIPVVGFLVEYRYKIGWLKYYCMGLATVFLGINYMHPDVFEKALMPALQSPWFVPHVVVYLVGYVLLAASAVSGWHNVFLNFRGKRSAKGESMAHYLALLGFVLLTFGLIFGALWAKEAWGHYWTWDPKETWAFISWLAYLGYLHLVACKTDPRKLQWYLGLAFFVLLVCWFGVNYLPSAQNSVHTYSGAS | failed |
| MKVIIIGGETTAYYLARSMLSRKYGVVIINKDRELCEEFAKKLKATIIHGDGSHKEILRDAEVSKNDVVVILTPRDEVNLFIAQLVMKDFGVKRVVSLVNDPGNMEIFKKMGITTVLNLTTLITNTVEALIFPDEFSSIIPLEQ | not failed |
| MPNLSCGVDNCAYNQNDMCSLNSIKVNGSFANHSEATCCGSFVEKGGFTNAAVDMGPAEPATSVACEAEKCCYNKNCKCHAESIDISGDYAQHQDNTECSTFRQELEHHHHHH | not failed |
